Measured values: patent US10005846 (LIFEARC, dated 2018)
Numbering of substitutions follows the chain as printed.

T1: rat TG2 (rat, UniProt Q9WVJ6 1-686, limits assumed)
T1 sequence: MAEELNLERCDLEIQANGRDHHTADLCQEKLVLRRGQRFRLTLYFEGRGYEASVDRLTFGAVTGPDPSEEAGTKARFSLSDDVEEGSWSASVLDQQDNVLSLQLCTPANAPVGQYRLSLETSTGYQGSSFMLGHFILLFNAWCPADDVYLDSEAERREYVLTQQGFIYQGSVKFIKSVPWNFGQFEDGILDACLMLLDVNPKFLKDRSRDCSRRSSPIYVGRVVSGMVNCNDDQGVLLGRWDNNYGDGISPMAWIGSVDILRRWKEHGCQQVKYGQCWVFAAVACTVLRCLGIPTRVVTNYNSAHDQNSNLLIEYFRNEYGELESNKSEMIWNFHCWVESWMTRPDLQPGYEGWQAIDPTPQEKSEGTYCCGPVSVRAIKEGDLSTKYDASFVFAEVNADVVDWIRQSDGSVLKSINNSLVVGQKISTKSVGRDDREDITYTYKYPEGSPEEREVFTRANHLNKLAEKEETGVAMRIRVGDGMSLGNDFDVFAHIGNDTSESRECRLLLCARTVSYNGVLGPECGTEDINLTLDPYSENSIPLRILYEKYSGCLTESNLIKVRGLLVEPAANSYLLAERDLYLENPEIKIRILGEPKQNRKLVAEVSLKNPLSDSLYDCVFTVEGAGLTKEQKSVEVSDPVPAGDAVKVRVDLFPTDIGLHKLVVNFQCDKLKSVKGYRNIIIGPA

T2: cynomolgus monkey TG2 (cynomolgus monkey, UniProt A0A2K5VXI8 1-687)
T2 construct: Bought recombinant protein; also called cynomogulus monkey TG2; cyano TG2
T2 sequence: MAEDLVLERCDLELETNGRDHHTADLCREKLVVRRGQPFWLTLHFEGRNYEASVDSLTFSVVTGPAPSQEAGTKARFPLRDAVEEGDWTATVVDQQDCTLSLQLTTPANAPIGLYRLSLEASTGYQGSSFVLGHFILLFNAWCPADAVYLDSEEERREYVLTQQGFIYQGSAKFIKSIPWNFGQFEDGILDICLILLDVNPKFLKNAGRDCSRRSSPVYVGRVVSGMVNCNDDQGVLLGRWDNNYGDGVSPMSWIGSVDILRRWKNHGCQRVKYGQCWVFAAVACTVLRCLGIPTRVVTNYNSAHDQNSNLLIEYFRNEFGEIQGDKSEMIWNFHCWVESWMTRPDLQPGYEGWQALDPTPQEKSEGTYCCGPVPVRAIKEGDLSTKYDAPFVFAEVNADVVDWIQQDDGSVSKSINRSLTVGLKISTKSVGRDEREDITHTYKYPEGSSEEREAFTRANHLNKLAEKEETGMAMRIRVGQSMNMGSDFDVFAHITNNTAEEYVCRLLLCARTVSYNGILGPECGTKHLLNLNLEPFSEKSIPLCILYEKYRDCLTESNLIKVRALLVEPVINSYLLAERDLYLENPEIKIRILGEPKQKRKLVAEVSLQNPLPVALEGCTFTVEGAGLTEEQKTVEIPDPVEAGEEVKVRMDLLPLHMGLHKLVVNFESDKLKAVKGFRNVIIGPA

B1: DD9 murine monoclonal antibody (antibody, V domains shown)
VH: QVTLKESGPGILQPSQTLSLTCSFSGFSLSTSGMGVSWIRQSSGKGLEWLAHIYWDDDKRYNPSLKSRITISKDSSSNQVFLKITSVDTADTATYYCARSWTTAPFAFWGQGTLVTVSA
VL: QIVLTQSPAIMSASPGEKVTMTCSASSSVDYMYWYQQKPGSSPRLLIYDTSNLASGVPVRFSGSGSGTSYSLTISRMGAEDAATYYCQQWNSSPLTFGAGTKLELK
notes: Mouse hybridoma IgG; heavy chain amplified with primer MHCG2A, kappa light chain; also called mDD9001
B2: EH6 murine monoclonal antibody (antibody, V domains shown)
VH: EVQLQQSGPELVKPGASVKMSCKASGYTFTSYVMHWVKQKPGQGLEWIGFINPYNDGTKYNEKFKGKATLTSDKASTTAYMELSSLTSEDSAVYYCARFSSGYWGQGTTLTVSS
VL: DVLMTQTPLSLPVSLGDQASISCRSSQSIVHSNGNTYLEWYLQKPGQSPKLLIYKVSNRFSGVPDRFSGSGSGTDFTLKISRVGAEDLGVYYCLQVSHVPFTFGSGTKLEIK
notes: Mouse hybridoma IgG; heavy chain amplified with primer MHCG2B, kappa light chain
B3: BB7 murine monoclonal antibody (antibody, V domains shown)
VH: AVQLVESGGGLVKPGGSLKLSCAASGIIFSSSAMSWVRQTPEKRLEWVATISSGGRSTYYPDSVKGRFTVSRDSAKNTLYLQMDSLRSEDTAIYYCAKLISPYWGQGTTLTVSS
VL: AIKMTQSPSSMYASLGERVIITCKASQDINSYLTWFQQKPGKSPKTLIYLTNRLMDGVPSRFSGSGSGQEFLLTISGLEHEDMGIYYCLQYVDFPYTFGGGTKLEIK
notes: Mouse hybridoma IgG; heavy chain amplified with primer MHCG1, kappa light chain; also called mBB001
B4: cBB001 chimeric antibody (murine BB7 variable regions) (antibody, human IgG1, V domains shown)
VH: B3 VH
VL: B3 VL
notes: also called chimeric BB7
B5: cDH001 chimeric antibody (murine DH2 variable regions) (antibody, human IgG1, V domains shown)
VH: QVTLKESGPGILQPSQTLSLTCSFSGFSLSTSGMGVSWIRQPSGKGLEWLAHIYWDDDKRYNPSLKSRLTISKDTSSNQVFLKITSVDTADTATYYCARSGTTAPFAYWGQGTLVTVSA
VL: B1 VL with D30S, G78E, Y85F, N91S
B6: cDD9001 chimeric antibody (murine DD9 variable regions) (antibody, human IgG1, V domains shown)
VH: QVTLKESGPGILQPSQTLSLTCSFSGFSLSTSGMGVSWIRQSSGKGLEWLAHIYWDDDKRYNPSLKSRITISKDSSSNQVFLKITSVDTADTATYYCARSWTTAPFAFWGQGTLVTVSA
VL: B1 VL

Molecular target: T1, rat TG2
Assay: cell-based or functional assay

Binder	IC50 of TG2 activity, 3H putrescine incorporation
B1	0.000303 mg/ml IgG per ng TG2
B2	0.000403 mg/ml IgG per ng TG2
B3	0.00032 mg/ml IgG per ng TG2

Molecular target: T2, cynomolgus monkey TG2
Assay: SPR (Biacore T200), antibody captured on anti-human IgG1 Fc chip, TG2 injected; +Ca2+
Description: Recombinant cynomolgus monkey TG2 was obtained from Trenzyme. Surface plasmon resonance (SPR) was measured on a Biacore T200 instrument (GE Healthcare). CM5 chips (GE Healthcare cat. no.: BR-1006-68) were coated with monoclonal mouse anti-human IgG1 (Fc) (MAH) antibody (GE Healthcare cat. no.: BR-1008-39) by amine-coupling as described in the manufacturers instructions. HBS-EP+ buffer (0.01 M HEPES, 0.15 M NaCl, 3 mM EDTA, 0.05% v/v Surfactant P20) and HBS-P+ buffer (0.01 M HEPES, 0.15 M NaCl, 0.05% Surfactant P20) were purchased from GE Healthcare as 10× stocks (cat. nos.: BR-1006-69 and BR-1006-71). Calcium Chloride solution was obtained from Sigma Aldrich (cat. no.:21115).
The method employed to determine the affinity of the anti-TG2 antibodies involved the capture of the chimeric or humanised antibodies on a MAH coated CM5 chip, followed by the injection of a series of TG2 samples in running buffer. The running buffer was 1×HBS-P+ containing 1 mM CaCl_2, or 1×HBS-EP+ for calcium-free experiments. Antibody capture was carried out for a contact time of 120 seconds at a flow rate of 10 μl/min resulting in the capture of approximately 40-80 RU. TG2 was injected over the immobilised antibody at concentrations ranging from 25 nM to 400 nM with a contact time up to 600 seconds at a flow rate of 30 μl/min. Dissociation of TG2 was typically measured for up to 5400 seconds (1.5 hours). Regeneration of the chip was then performed using 3 M MgCl_2, for a contact time of 60 seconds at a flow rate of […], followed by a 300 s stabilisation period before the next sample. For each of human and cynomolgus monkey TG2, at least 5 injections at a variety of concentrations were performed in at least two separate experiments.
Kinetic data were exported from the Biacore T200 Evaluation Software and analysed using GraphPad Prism, where the association phases and dissociation phases were analysed separately using a one phase association model and one-phase exponential decay model respectively. Association rates ($kon$) were calculated for each curve individually, and dissociation rates ($koff$) values from the long dissociation phase data collected. Where $koff$ values were calculated to be $<1\times10^-5$ s^-1, values were set at 1×10^-5 for analysis, as rates slower than this could not be estimated accurately.

Binder	Kd	koff	kon
B4	< 30 pM	< 1e-05 s⁻¹	290000 M⁻¹ s⁻¹
B5	< 700 pM	< 1e-05 s⁻¹	15000 M⁻¹ s⁻¹
B6	520 pM	1.6e-05 s⁻¹	31000 M⁻¹ s⁻¹
